Target: AtWRKY50 DBD_K26Q (Arabidopsis thaliana, UniProt Q8VWQ5 =M+99-173, K123Q;internal_change)
Assay: DPI-ELISA

B1: W2 (dsDNA)
DNA 1: AAATTATTCAGCCATCAAAAGTTGACCAATAAT
DNA 2: ATTATTGGTCAACTTTTGATGGCTGAATAATTT
B1: binds.

Source: PMC3834811
